{"source": "patent US20160346402A1", "binders": {"B1": {"name": "ITEM-1 (antibody, from another filing, V domains shown)", "VH": "EVKLEESGGGLVQPGGSMKLSCVASGFSFSNYWMNWVRQSPEKGLEWVAEIRLKSNNYATHYAESVKGRFTISRHDSKSSVYLQMNNLRAEDTGIYYCTRAYADYFDYWGQGTTLTVSS", "VL": "DIVLTQSPASLVVSLGQRATISCRASQSVSTSTYSYMHWYQQKPGQPPKILIKYASNLESGVPARFSGSGSGTDFTLNIHPVEEEDTATYYCQHSWEIPYTFGGGTKLEIKR"}}, "molecular_target": "TPP-2305, hTNFRSF12 amino acids a28-80 (recombinant human TWEAKR protein) (human) (UniProt Q9NP84)", "test": "SPR (Biacore T100), antibody captured, TWEAKR TPP-2305 as analyte, 1:1 model"}
{"binder": "B1", "values": [{"measurement": "Kd", "result": 2.9, "unit": "nM"}, {"measurement": "koff", "result": 0.011, "unit": "s⁻¹"}, {"measurement": "kon", "result": "3.8e+06", "unit": "M⁻¹ s⁻¹"}]}
